{"source": "patent US20240025965A1", "about": "(UNIVERSITEIT TWENTE, published 2024)", "binders": {"B1": {"name": "AV3 peptide RYYRITY (peptide)", "peptide": "RYYRITY", "notes": "Unlabelled; On the peptide microarray it is linked by its N-terminus to a glass slide through a PEG linker"}, "B2": {"name": "AV3-PEG(6)-5FAM (peptide)", "peptide": "RYYRITY", "modifications": "also: PEG(6)-5FAM conjugated, site not given here", "notes": "also called AV3 peptide (fluorescent labeled)"}, "B3": {"name": "Phage clone 27 displaying AXI-II (peptide)", "chain": "SFATWTPNFERN", "notes": "Whole phage virions in the phage ELISA; not shown: phage coat protein of the Ph.D.12 library"}, "B4": {"name": "FITC-labeled nAV2: YYRITYGETGGN-K-PEG(6)-Fluorescein (peptide)", "peptide": "YYRITYGETGGNK([PEG(6)-fluorescein])", "notes": "also called nAV2-FITC; nAV2-PEG(6)-fluorescein"}, "B5": {"name": "Phage clones 11, 13, 14, 16, 19, 20, 21, 22, 24, 25, 28, 29, 30, 31 and 38 displaying AXI-I (peptide)", "chain": "SGLTEWLRWFNS", "notes": "as for B3"}, "B6": {"name": "AXI-I peptide SGLTEWLRWFNS (peptide)", "peptide": "SGLTEWLRWFNS", "notes": "Unlabelled peptide; On the peptide microarray it is linked by its N-terminus to a glass slide through a PEG linker; also called unlabeled AXI-I"}}, "key": {"[1]": {"molecular_target": "T1, α5β1 human recombinant protein (human, UniProt P08648 42-995; P05556 21-728)", "T1 construct": "Bought from R&D Systems; also called α5β1 receptor; integrin α5β1", "T1 sequence (P08648 42-995 limits assumed, chain 1 of 2)": "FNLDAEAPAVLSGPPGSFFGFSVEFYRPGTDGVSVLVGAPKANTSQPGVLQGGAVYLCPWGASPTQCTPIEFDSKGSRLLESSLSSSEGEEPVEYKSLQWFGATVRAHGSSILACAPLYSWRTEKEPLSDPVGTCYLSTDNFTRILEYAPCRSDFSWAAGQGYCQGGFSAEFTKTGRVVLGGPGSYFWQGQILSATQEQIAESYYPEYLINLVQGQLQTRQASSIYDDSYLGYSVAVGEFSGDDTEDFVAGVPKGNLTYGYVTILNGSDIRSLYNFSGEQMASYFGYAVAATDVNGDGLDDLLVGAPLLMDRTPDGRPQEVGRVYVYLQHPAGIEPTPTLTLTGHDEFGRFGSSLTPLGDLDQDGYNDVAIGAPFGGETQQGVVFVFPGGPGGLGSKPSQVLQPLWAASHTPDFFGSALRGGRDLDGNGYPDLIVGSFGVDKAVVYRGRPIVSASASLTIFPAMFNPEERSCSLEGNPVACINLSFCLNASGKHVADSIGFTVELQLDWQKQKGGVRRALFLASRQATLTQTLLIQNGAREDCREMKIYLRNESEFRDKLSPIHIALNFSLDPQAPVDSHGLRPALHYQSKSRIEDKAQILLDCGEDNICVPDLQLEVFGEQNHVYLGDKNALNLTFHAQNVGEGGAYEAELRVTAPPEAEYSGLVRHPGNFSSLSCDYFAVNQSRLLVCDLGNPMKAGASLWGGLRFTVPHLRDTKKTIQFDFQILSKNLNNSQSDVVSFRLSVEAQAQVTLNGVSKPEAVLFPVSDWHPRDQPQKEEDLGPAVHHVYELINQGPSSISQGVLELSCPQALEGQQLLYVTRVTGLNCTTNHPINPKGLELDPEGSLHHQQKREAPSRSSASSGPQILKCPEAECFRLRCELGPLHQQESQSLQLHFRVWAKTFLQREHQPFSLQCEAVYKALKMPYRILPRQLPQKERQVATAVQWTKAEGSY", "T1 sequence (P05556 21-728 limits assumed, chain 2 of 2)": "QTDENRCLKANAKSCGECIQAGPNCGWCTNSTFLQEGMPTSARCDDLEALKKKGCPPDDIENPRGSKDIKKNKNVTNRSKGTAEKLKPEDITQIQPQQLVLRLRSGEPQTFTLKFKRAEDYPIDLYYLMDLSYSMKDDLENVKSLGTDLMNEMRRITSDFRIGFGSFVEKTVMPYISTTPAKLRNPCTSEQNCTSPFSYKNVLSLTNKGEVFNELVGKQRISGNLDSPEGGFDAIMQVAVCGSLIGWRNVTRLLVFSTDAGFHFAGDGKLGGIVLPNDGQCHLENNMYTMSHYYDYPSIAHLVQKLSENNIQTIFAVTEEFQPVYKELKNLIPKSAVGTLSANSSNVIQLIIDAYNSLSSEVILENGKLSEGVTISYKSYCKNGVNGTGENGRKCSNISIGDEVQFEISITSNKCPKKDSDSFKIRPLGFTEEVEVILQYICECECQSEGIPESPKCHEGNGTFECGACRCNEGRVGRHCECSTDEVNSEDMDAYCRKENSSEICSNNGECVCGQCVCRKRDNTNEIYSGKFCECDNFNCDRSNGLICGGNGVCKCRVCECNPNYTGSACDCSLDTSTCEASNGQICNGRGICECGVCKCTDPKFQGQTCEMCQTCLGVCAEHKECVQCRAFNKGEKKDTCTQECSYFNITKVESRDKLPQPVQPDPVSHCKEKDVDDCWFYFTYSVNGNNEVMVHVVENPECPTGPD", "test": "competition: unlabelled AV3 in excess against nAV2-FITC on coated α5β1 receptor, fluorescence intensity (counts)", "method": "(§1) The purified human recombinant α5β1 or α11β1 receptors (5 μg/ml in PBS) were coated onto 96-well ELISA plates (White Maxisorb-Nunc) by incubating overnight at 4° C. Then, the wells were blocked with blocking buffer (5% (w/v) BSA, 150 mM Nacl, 25 mM Tris) for 2 hours at room temperature. Then, the wells were washed three times with 200 μl of washing buffer (150 mM Nacl, 25 mM Tris-base, 0.005% TWEEN® 20, 0.5% BSA). Thereafter, the peptides conjugated with PEG(6)-FITC were diluted to different concentrations in washing buffer. For the competitive studies, the wells were co-incubated with 10-fold higher amount of unlabeled peptides. The plates were incubated at 37° C. for 60 minutes. Then, the wells were washed three times with washing buffer and subsequently, the plates were read for the fluorescein signal Ex/Em 485 nm/520 nm using a fluorescent plate reader (Perkin Elmer).\n(§2) Blocking of the peptide with 10-fold excess of unlabeled peptide blocked the binding of nAV2-PEG(6)-fluorescein. In addition, a new short peptide (RYYRITY (SEQ ID NO:8), called AV3) was also designed because seq. 3 and seq. 4 (see the sequences above) had “YYRITY” (SEQ ID NO:10) as common amino acids and the N-terminal of the seq. 4 was crucial for the binding to the receptor. […] Therefore, AV3 was selected to move with further studies."}, "[2]": {"molecular_target": "T2, human recombinant receptor αvβ3 (human, UniProt P06756 31-992; P05106 27-718, limits assumed)", "T2 construct": "also called irrelevant receptor of the integrin family", "T2 sequence (P06756 31-992 limits assumed, chain 1 of 2)": "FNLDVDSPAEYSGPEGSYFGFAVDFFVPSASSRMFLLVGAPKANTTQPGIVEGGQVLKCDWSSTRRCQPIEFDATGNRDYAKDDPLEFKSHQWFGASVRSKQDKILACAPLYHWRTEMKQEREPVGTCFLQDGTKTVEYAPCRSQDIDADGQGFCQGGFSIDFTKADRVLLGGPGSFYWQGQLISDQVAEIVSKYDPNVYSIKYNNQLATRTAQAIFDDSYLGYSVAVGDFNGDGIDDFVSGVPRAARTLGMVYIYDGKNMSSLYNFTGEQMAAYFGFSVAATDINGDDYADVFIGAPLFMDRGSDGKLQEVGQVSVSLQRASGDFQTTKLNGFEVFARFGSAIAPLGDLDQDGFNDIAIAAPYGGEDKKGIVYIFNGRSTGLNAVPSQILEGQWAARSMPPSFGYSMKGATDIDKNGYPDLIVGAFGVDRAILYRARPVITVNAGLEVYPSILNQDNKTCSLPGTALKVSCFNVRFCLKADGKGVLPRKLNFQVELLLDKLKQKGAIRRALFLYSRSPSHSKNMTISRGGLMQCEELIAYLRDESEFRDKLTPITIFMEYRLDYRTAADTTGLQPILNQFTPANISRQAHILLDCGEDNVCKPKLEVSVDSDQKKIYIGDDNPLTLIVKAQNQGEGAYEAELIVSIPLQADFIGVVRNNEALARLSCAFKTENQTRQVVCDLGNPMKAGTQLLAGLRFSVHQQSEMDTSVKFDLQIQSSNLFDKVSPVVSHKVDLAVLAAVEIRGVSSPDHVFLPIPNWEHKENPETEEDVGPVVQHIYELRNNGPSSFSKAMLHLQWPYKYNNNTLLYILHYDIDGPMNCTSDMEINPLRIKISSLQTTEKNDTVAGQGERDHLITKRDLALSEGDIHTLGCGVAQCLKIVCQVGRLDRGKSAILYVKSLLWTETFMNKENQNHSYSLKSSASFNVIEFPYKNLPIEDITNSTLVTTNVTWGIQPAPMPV", "T2 sequence (P05106 27-718 limits assumed, chain 2 of 2)": "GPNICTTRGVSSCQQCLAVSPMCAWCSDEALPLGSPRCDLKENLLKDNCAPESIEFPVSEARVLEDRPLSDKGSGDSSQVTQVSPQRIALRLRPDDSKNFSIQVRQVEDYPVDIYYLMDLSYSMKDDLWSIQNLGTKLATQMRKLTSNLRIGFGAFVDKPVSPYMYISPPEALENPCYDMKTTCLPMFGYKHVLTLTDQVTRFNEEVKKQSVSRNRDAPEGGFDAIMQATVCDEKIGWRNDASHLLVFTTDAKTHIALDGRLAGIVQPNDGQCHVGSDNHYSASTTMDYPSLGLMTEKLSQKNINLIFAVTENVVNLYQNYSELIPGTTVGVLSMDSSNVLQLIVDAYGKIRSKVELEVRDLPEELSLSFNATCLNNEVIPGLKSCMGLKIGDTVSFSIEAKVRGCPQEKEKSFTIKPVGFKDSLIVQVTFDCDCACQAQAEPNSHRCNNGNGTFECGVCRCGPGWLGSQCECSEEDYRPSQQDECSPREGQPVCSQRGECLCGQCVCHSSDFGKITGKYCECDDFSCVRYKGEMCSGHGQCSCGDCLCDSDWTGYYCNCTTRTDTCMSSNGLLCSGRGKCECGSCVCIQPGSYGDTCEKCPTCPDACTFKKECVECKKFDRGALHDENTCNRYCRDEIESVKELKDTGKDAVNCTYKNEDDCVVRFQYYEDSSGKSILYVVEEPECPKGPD", "test": "microscale thermophoresis, 1 µM labelled peptide, receptor titrated, in solution", "method": "(§3) Fluorescent labeled peptide (AV3-PEG(6)-5FAM or AXI-I-PEG(6)-FITC) (1 μM) was incubated with different concentrations of a human recombinant receptor (i.e., α5β1, α11β1 or αvβ3) for 10 minutes in Eppendorf tubes. The mixture of peptide and receptor was loaded in to NT.115™ hydrophilic glass capillaries. In order to find the best thermophoretic setting, the binding of peptide to the target receptor was examined at low (20%), middle (40%), and high (80%) MST power and all other binding experiments were performed using the same MST-settings. Finally, the dissociation constant (Kd) value was calculated from an average of three experiments.\n(§4) Fluorescent labeled peptides (AV3-PEG(6)-5FAM and AXI-I-PEG(6)-FITC) were examined for their binding affinities against α5β1 and α11β1 receptors, respectively using microscale thermophoresis (MST). MST allows peptides to interact with the receptors in solution phase. These peptides were also exposed to an irrelevant receptor of the integrin family αvβ3 and MST analyses were performed."}, "[3]": {"molecular_target": "T1, α5β1 human recombinant protein", "test": "microscale thermophoresis, 1 µM labelled peptide, receptor titrated, in solution", "method": "as §3, §4"}, "[4]": {"molecular_target": "T1, α5β1 human recombinant protein", "test": "microscale thermophoresis, 1 µM labelled peptide with rising concentrations of the receptor in solution", "method": "as §3, §4"}, "[5]": {"molecular_target": "T3, rhIntegrin α11β1 (human, UniProt Q9UKX5 23-1141; P05556 21-728, limits assumed)", "T3 construct": "Bought from R&D Systems; also called α11β1 receptor; ITGA11 receptor", "test": "phage ELISA on coated rhIntegrin α11β1, HRP-anti-M13 antibody, read at 490 nm; control coatings rhIntegrin α4β1 (Bar 2) and no coating (Bar 3); one phage dose, no concentration given", "method": "For each clone, 20 mL of LB medium was inoculated with ER2738 and incubated at 37° C. until slightly turbid. Single plaque of phages were inoculated to each culture and then incubated at 37° C. with vigorous aeration for 4.5 hours. The cultures were transferred to a fresh centrifuge tube and centrifuged for 10 minutes at 10,000 rpm. The upper 80% of the supernatant was transferred to a fresh tube and precipitated with PEG/NaCl twice. Then the pellet was suspended in 250 μL TBS. The 96-well ELISA plate was coated with 100 μL of 1 μg/mL target in coating buffer and incubated at 4° C. overnight. Then, the plate was washed once with the washing buffer (0.1% TWEEN® in TBS). All wells were blocked with 250 μL of blocking buffer at 4° C. for 1-2 hours. Then, the plate was washed 6 times with the washing buffer and slapping on a paper towel to remove excess buffer. Thereafter, 100 μL of phage virions was added per well. In competitive phage ELISA, competitive antigen was mixed with phages in washing buffer and added to the wells and incubated at room temperature for 1-2 hours with agitation. The plate was washed 6 times with washing buffer. HRP-conjugated anti-M13 antibody (GE healthcare, 1:5000 in blocking buffer) was added to each well and incubated at room temperature for 1 hour with agitation. […] The plates were read using a microplate reader at 490 nm."}, "[6]": {"molecular_target": "T4, ITGA11 on human stellate cells (LX2 hepatic stellate cells; primary pancreatic stellate cells) (human, UniProt Q9UKX5 23-1188)", "T4 construct": "whole, on cells; For the pancreatic stellate cells the target is only implied; also called ITGA11-expressing hepatic stellate cells; ITGA11 expressing LX2 cells", "T4 sequence (looked up)": "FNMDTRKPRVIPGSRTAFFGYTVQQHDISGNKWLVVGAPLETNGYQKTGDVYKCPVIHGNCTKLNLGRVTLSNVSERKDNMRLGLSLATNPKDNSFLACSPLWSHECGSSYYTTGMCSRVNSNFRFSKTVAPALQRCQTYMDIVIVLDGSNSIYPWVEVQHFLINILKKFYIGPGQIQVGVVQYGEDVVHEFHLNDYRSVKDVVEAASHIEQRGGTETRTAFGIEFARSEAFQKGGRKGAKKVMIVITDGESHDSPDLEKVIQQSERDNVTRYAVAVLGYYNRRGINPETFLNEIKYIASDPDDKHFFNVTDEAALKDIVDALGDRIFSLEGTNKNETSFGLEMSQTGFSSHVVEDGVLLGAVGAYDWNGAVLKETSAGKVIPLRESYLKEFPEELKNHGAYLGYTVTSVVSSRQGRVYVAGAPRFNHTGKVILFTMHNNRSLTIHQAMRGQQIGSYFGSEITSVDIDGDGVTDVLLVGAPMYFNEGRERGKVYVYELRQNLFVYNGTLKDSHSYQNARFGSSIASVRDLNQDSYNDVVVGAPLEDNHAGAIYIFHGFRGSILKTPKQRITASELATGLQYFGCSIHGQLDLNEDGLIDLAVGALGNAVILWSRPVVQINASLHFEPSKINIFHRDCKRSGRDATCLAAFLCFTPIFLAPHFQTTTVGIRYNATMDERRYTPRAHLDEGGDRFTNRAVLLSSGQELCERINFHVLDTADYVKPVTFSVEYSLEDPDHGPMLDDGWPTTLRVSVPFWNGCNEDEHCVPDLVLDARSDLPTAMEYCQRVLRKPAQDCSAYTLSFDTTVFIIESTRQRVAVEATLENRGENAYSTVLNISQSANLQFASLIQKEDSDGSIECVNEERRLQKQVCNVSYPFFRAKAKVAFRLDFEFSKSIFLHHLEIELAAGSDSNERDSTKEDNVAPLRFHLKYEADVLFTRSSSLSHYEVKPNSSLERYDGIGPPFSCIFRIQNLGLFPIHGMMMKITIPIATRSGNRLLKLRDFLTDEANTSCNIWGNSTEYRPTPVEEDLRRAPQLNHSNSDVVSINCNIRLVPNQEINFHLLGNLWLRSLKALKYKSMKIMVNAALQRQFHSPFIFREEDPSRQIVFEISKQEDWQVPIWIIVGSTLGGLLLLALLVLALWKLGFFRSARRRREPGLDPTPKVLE", "test": "flow cytometry on suspended primary human pancreatic stellate cells, 1 hour at 4° C.; whole-cell binding on suspended primary human pancreatic stellate cells, 1 hour at 4° C., flow cytometry; PEG- and FITC-modified peptide", "method": "(§5) PSCs were trypsinized using trypsin-EDTA solution and cell numbers were diluted to 4×10⁴ cells/ml. Cells were incubated at 37° C. for 30 minutes to allow receptor recovery. Then different concentrations of AXI-I-FITC was added to the cells containing 2% FBS and incubated at 4° C. for 60 minutes. Thereafter, cells were centrifuged at 1500 rpm at 4° C. for 10 minutes. Supernatant was removed and cells were washed 3 times with PBS and then were fixed with 0.5% formaldehyde for 1 hour at 4° C. and measured with flow cytometry for fluorescence.\n(§6) Different concentrations of AXI-I-PEG-FITC was incubated with suspended PSCs for 1 hour at 4° C., washed and fixed with 0.5% formaldehyde and measured with flow cytometry. […] The 50% of the total binding, i.e., dissociation constant (kd) value was approximately 1 uM. Since the peptide has been modified with PEG chain and a fluorophore, the binding affinity of the peptide may be reduced due to steric hindrance."}, "[7]": {"molecular_target": "T4, ITGA11 on human stellate cells (LX2 …)", "test": "flow cytometry of AXI-I-PEG-FITC on suspended primary human pancreatic stellate cells, 1 hour at 4 °C", "method": "as §5, §6"}, "[8]": {"molecular_target": "T1, α5β1 human recombinant protein", "test": "FITC-labelled peptide on coated α5β1 receptor in a 96-well plate, fluorescence intensity", "method": "(§7) Purified ITGA11 receptor (α11β1; 100 μg/ml—stock; R&D systems) was diluted to 5 μg/ml with 1×PBS. 96-well ELISA White Maxisorb plate (Nunc) was coated with 50 μl of 5 μg/ml ITGA11 (or as control α5β1) receptor for overnight at 4° C. Then, wells were blocked for 3-4 hours with 200 μl of blocking buffer (1×PBS containing 5% BSA). Wells were washed three times with 200 μl of washing buffer (1×PBS containing 0.5% BSA and 0.05% TWEEN®-20). Peptides conjugated with FITC were diluted to different concentrations in washing buffer and then added to the plate and incubated at 37° C. for 1 hour. In addition, the binding of the peptide was blocked by co-incubation with 10× higher amount of unlabeled peptide. Subsequently, wells were washed three times with washing buffer. Then, 100 μl of 1×PBS was added and plates were read at 485 nm/520 nm with a fluorescence plate reader."}, "[9]": {"molecular_target": "T2, human recombinant receptor αvβ3", "test": "microscale thermophoresis, 1 µM labelled peptide", "method": "as §3, §4"}, "[10]": {"molecular_target": "T3, rhIntegrin α11β1", "test": "microscale thermophoresis, 1 µM labelled peptide, receptor titrated, in solution", "method": "as §3, §4"}, "[11]": {"molecular_target": "T1, α5β1 human recombinant protein", "test": "FITC-labelled peptide on coated α5β1 receptor in a 96-well plate, fluorescence intensity (counts)", "method": "as §1, §2"}, "[12]": {"molecular_target": "T3, rhIntegrin α11β1", "test": "competition: unlabeled AXI-I in 10-fold excess against AXI-I-FITC on coated α11β1 receptor, fluorescence intensity", "method": "as §7"}}, "note": "Primed or numbered codes have the meaning given here. Where no end group is shown, it is not given here. Side-chain parts run from the residue outwards. PEG(6) = PEG(6) linker"}
{"binder": "B1", "values": [{"measurement": "binding result", "setting": "[1]", "result": "binds"}]}
{"binder": "B2", "values": [{"measurement": "Kd", "setting": "[2]", "result": 36100, "unit": "nM"}, {"measurement": "Kd", "setting": "[3]", "result": 97.8, "unit": "nM"}, {"measurement": "EC50 (read off the curve)", "setting": "[4]", "result": "~100", "unit": "nM"}]}
{"binder": "B3", "values": [{"measurement": "binding result", "setting": "[5]", "result": "binds"}]}
{"binder": "SGLTEWLRWFNS (also: PEG(6)-FITC conjugated, site not given here, also called AXI-I-PEG-FITC; AXI-I-FITC)", "note": "[AXI-I-PEG(6)-FITC]", "values": [{"measurement": "Kd", "setting": "[6]", "result": "~1000", "unit": "nM"}, {"measurement": "EC50 (read off the curve)", "setting": "[7]", "result": "~1000", "unit": "nM"}, {"measurement": "binding result", "setting": "[8]", "result": "no binding (tested: 1.0 µM)"}, {"measurement": "binding result", "setting": "[9]", "result": "no binding"}, {"measurement": "Kd", "setting": "[10]", "result": 149, "unit": "nM"}]}
{"binder": "B4", "values": [{"measurement": "binding result", "setting": "[11]", "result": "binds"}]}
{"binder": "B5", "values": [{"measurement": "binding result", "setting": "[5]", "result": "binds"}]}
{"binder": "B6", "values": [{"measurement": "binding result", "setting": "[12]", "result": "binds"}]}
